Experimental data published in patent US20060286112A1 (published 2006).

B1: 2.19 (antibody, V domains shown)
VH: QVQLQESGPGLVKPSETLSLTCTVSGDSISSYYWSWIRQPPGKGLEWIGYVYYSGSTNYNPSLKSRVTMSVDTSKNQFSLKLSSVTAADTAVYYCARDLELYAFDIWGQGTMVTVSS
VL: EIVLTQFPGTLSLSPGERVTLSCRASQSVSSTYVVWYQQKPGQAPRLLIYGASSRATGIPDRFSGSGSGTDFTLTISRLEPEDFAVYYCQQHGSSPWTFGQGTKVEIK
notes: human IgG2 or IgG4
B2: 6.44 (antibody, V domains shown)
VH: QVQLQESGPGLVKPSQTLSLICTVSGGSISRGDSYWSWIRQHPGKGLEWIGYIYYSGSTFYNPSLKSRVTISVDTSKNQFSLKLSSVTAADTAVYYCAREDRIFGVVDYWGQGTLVTVSS
VL: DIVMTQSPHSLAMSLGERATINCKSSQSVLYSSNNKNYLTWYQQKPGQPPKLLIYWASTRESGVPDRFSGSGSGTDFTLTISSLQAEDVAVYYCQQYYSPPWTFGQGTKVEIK
notes: human IgG2 or IgG4
B3: 2.7 (antibody, V domains shown)
VH: EVQLVESGGGLVKPGGSLRLSCAASGFTFSNAWMSWVRQAPGKGLEWVGRIKRKTDGETTDYAAPVKGRFTISRDDSRNTLYLQMNSLKTEDTAVYYCTIYTYYYGMDVWGQGTTVTVSS
VL: DIQMTQSPSSLSASVGDRVTITCRASQSINNYLNWYQQKPGKAPKLLIYAASSLESGVPSRFSGSGSGTDFTLTISSLQPEDFATYYCQQSYSTPPTFGQGTKVEIK
notes: human IgG2 or IgG4; also called antibody 2.7
B4: 6.17 (antibody, V domains shown)
VH: EVQLVQSGAEVKKPGESLRISCKGSGYSVSSYWIGWVRQMPGKGLEWMGIIYPGDSDTRYSPSFQGQVTISADKSISTAFLQWISLKASDTAMYYCARLQGDCSGGSCYGHFDYWGQGTLVTVS
VL: EIVLTQSPGTLSLSPGERATLSCRASQTISSGYLAWYQQKPAQAPRLLIYVASRRATGIPDRFSGSGSGTDFTLTISRLEPEDFAVYYCQQYGSSSWTFGQGTTVEIK
notes: human IgG2 or IgG4

Biological target: T1, human VLA-1 α1 subunit (CD49a), full-length, on transfected CHO cells (human, UniProt P56199 29-1179)
Test: cell-based or functional assay

IC50, adhesion of CHO-VLA-1 cells to collagen IV [nM] | Binder
0.47 | B1
0.08 | B2
0.08 | B3
0.27 | B4

Biological target: T2, human VLA-1 (alpha 1/beta 1, CD49a/CD29) on IL-2 stimulated human PBMC / T cells (human, UniProt P56199 29-1179; P05556 21-798)
Test: cell-based or functional assay

% adhesion of IL-2 activated T cells to collagen IV vs no antibody, 10 µg/ml, +PMA [%] | % adhesion of IL-2 activated T cells to collagen IV vs no antibody, 10 µg/ml, -PMA [%] | Binder
23.7 | 49.2 | B2
18 | 30 | B3
22.5 | 64.1 | B4

Biological target: T3, human CD49a I domain K88N (human, UniProt P56199 151-364, K88N)
T3 construct: domain: I domain; not shown: myc and His tags
Test: ELISA on secreted mutant I domain

binding result | Binder
binds | B1
binds | B2
binds | B3
binds | B4

Biological target: T4, human CD49a I domain with residues 91-96 VQRGGR replaced by mouse GRRGGL (human, UniProt P56199 151-364, V91G; Q92R; R96L)
T4 construct: domain: I domain; also called V91G, Q92R, R96L; not shown: myc and His tags
Test: ELISA on secreted mutant I domain

binding result | Binder
no binding | B1
no binding | B2
no binding | B3
no binding | B4

Biological target: T5, human CD49a I domain E66A (human, UniProt P56199 151-364, E66A)
T5 construct: domain: I domain; not shown: myc and His tags
Test: ELISA on secreted mutant I domain

binding result | Binder
no binding | B1
binds | B2
no binding | B3
binds | B4

Biological target: T6, human CD49a I domain S162H (human, UniProt P56199 151-364, S162H)
T6 construct: domain: I domain; not shown: myc and His tags
Test: ELISA on secreted mutant I domain

binding result | Binder
binds | B1
binds | B2
binds | B3
no binding | B4

Biological target: T7, human CD49a I domain K142Q (human, UniProt P56199 151-364, K142Q)
T7 construct: domain: I domain; text prints KI42Q once; not shown: myc and His tags
Test: ELISA on secreted mutant I domain

binding result | Binder
binds | B1
binds | B2
binds | B3
binds | B4

Biological target: T8, human CD49a I domain I11F (human, UniProt P56199 151-364, I11F)
T8 construct: domain: I domain; not shown: myc and His tags
Test: ELISA on secreted mutant I domain

binding result | Binder
binds | B1
binds | B2
binds | B3
binds | B4

Biological target: T9, human CD49a I domain T204A (human, UniProt P56199 151-364, T204A)
T9 construct: domain: I domain; not shown: myc and His tags
Test: ELISA on secreted mutant I domain

binding result | Binder
binds | B1
binds | B2
binds | B3
binds | B4

Biological target: T10, human CD49a I domain E48K (human, UniProt P56199 151-364, E48K)
T10 construct: domain: I domain; not shown: myc and His tags
Test: ELISA on secreted mutant I domain

binding result | Binder
binds | B1
binds | B2
binds | B3
binds | B4

Biological target: T1, human VLA-1 α1 subunit (CD49a), …
Test: cell-based or functional assay
Remark: another data set of the same source

relative inhibition at an optimal concentration, CHO-VLA-1 adhesion to collagen IV [%] | Binder
> 80 | B1
> 80 | B2
> 80 | B3
> 80 | B4

Biological target: T2, human VLA-1 (alpha 1/beta 1, …)
Test: cell-based or functional assay
Remark: another data set of the same source

% adhesion of T cells to collagen IV vs no antibody, 0.5 nM mAb, 10 ng/ml PMA [%] | % adhesion of T cells to collagen IV vs no antibody, 5 nM mAb, 10 ng/ml PMA [%] | Binder
89.8 | 56.6 | B2
85.4 | 34.8 | B3
93.7 | 63.7 | B4

Biological target: T2, human VLA-1 (alpha 1/beta 1, …)
Test: cell-based or functional assay
Remark: another data set of the same source

% adhesion of T cells to collagen IV vs no antibody, 0.5 nM mAb, no PMA [%] | % adhesion of T cells to collagen IV vs no antibody, 5 nM mAb, no PMA [%] | Binder
70.7 | 25 | B2
33.5 | 12.1 | B3
76.3 | 22.3 | B4
